This note sets out measurements from article doi:10.1101/2021.02.17.431743 (bioRxiv, 2021).

In this assay the target is full-length HeV-RBP (Hendra virus receptor binding protein); head, stalk, transmembrane, and cytoplasmic … (Hendra virus, UniProt O89343). The assay is described as follows: flow cytometry on cells.
full-length HeV-RBP (Hendra virus receptor binding protein); head, stalk, transmembrane, and cytoplasmic …, sequence (O89343 whole entry): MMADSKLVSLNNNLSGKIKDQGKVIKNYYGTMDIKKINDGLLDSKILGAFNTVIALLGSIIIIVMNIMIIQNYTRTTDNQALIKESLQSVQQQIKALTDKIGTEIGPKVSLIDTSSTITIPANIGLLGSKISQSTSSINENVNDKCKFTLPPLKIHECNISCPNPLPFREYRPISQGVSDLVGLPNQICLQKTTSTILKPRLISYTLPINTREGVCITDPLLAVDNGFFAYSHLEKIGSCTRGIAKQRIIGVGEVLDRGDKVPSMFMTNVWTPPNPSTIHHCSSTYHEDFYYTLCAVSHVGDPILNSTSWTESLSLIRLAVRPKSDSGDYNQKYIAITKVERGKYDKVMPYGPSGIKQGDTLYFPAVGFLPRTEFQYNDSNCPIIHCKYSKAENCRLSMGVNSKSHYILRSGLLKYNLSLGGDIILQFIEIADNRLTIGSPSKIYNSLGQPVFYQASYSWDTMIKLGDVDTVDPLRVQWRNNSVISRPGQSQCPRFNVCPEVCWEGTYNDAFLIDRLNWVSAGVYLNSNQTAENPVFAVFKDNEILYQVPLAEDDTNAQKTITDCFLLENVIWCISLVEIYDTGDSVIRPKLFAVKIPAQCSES

B1: HENV-117 human monoclonal antibody (antibody, V domains shown)
VH: QVQLQQWGAGLLKPSETLSLTCDLSGGSFTNYYWTWIRHLPGKGLEWLGEINHSGRTNYSPSLKSRVTISVDTSKNQFSLRLSSVTAADTAVYYCARDIRKLAPKPHSYDLYYGMDVWGQGTTVTVSS
VL: EIVLTQSPGTLSLSPGERATLSCRASQSVGSNYLTWYQQKPGQPPRLLIYGASNRAAGIPDRFSGSGSGTDFTLTISRLEPEDFAVYYCQQYETSSRTFGQGTKVDIR
Take B1: the binding result was “binds”.

B2: HENV-103 human monoclonal antibody (antibody, V domains shown)
VH: QVQLQGSGPGLVKPSQTLSLTCSVSGGSVSRSGYYWGWIRQHPGKGLECIGYIYYSGITYYNPSLSGRLTISVDTSKNQFSLELSSVTAADTAVYYCARVWLGGGVFDFWGQGSLVTVSS
VL: EIVMTQSPATLSVSPGEGATLSCRASQSVSSNLAWYQQKPGQAPRLLIYDASTRATGIPARFSGSGSGTEFTLTISSLQSEDFAVYYCQQYNDWRTFGRGTKVEMR
As for B2, the binding result is on record as “binds”.
